From US9744220B2, “Compositions and methods for treating inflammatory diseases” (priority 2013, dated 2017)

Experiments:
[1] = IV, naive mice; cited from earlier work
[2] = target: TrkB (Homo sapiens, UniProt Q16620); settings: previous finding; cited from earlier work
[3] = Toxicity in RAG-2-/- deficient mice; format: in vivo; settings: highly susceptible to endotoxin shock
[4] = test system: MCP-1 and FKN receptors CCR2 and CX3CR1; test: IV sPDNF into naïve mice, chemokine receptor transcripts by qPCR; format: in vivo
Description: For the results depicted in FIGS. 12A and 12B, mice (3/group) were injected with various single doses of IV sPDNF, and sacrificed 3 hr post-injection. FIG. 12A is a graph showing the mRNA expression of MCP-1 receptor CCR2, as quantified by qPCR in the heart and liver. FIG. 12B is a graph showing the mRNA expression of FKN receptor CX3CR1, as quantified by qPCR in the heart and liver. […] For the results depicted in FIGS. 12C and 12D, mice (3/group) were injected with vehicle (Veh) or multiple doses of IV sPDNF (25 μg per injection) at 0, 3 and 24 hr, and sacrificed 24 hr after the last injection. FIG. 12C is a graph showing mRNA expression of CCR2, as quantified by qPCR in the liver, colon and heart (ventricles and atria). FIG. 12D is a graph showing mRNA expression of CX3CR1, as quantified by qPCR in the liver, colon and heart (ventricles and atria). Notice a statistically significant upregulation of MCP-1 and FKN receptors in the heart and liver 48-h after the start of three doses of IV sPDNF spaced within a 24 h span; *P<0.05, and ** P<0.01
One of the functions of MCP-1 and FKN is to attract cells expressing their receptors (CCR2 and CX3CR1, respectively) to tissue sites. […] Thus, sPDNF-induced MCP-1 and FKN promoted migration of cells bearing CCR2 and CX3CR1 receptors.
RNA was isolated from Trizol lysates of cell monolayers or liquid nitrogen snap frozen tissue samples dissociated by a Tissue-Tearor mechanical homogenizer (Biospec Products, Inc.). cDNA was synthesized using the Quantitect Reverse Transcription kit (Qiagen) according to manufacturer's instructions. Chemokine and chemokine receptor transcripts were amplified using specific primers and normalized to HPRT using SYBR Green (Qiagen), and, if needed, expressed relative to control-unstimulated cells. The following primers were used: […]
sPDNF was diluted in sterile endotoxin-free PBS (200 μl) and injected via the tail vein into 6-8 week old female C57BL/6 mice. Mice receiving single IV injections of 150 μg sPDNF per mouse were sacrificed at 3, 6, 9, and 12 hr post-injection, or various doses of sPDNF (100 ng-150 μg) and sacrificed 3 hr post-injection. Mice receiving multiple injections of sPDNF or PBS vehicle control (0, 3, and 24 hr, 100 μg per injection) were sacrificed 24 hr after the last injection (i.e., 48 hr after the first injection). Mice were perfused with PBS and organs harvested as described above.

[5] = test system: IL1-Ra, TSG-6 and COX-2; test: Intravenous sPDNF into naïve mice, anti-inflammatory factor transcripts in heart and liver; format: in vivo
Description: FIG. 2A is a graph showing stem cell marker expression in mice administered sPDNF. One set of three wild type C57BL/6 mice received intravenous (IV) PBS without (PBS) or with sPDNF (2 mg/kg) at 0, 3 and 24 hours (sPDNF 1d), and a second set IV sPDNF (2 mg/kg) for 6 days (sPDNF 6d). Mice were sacrificed 3 hr post injection and the indicated stem cells markers were quantified in the ventricles by real time PCR, and normalized to HPRT; *, p<0.05, **, p<0.001, ***, p<0.0001; SCF, stem cell factor, ns, not significant. FIG. 2B is a graph showing stem cell marker expression in MyD88^−/− mice administered sPDNF. TLR-deficient MyD88^−/− mice (C57BL/6 background) (2/group) were injected IV with a single dose of sPDNF (2 mg/kg), sacrificed at 3 hours post-injection, and the indicated cardiac stem cell markers assessed by qPCR. Data were normalized to HPRT and made relative to vehicle-treated controls (set at 1.0 and represented by the dashed line); **, P<0.01; and ***, P<0.005. FIG. 2C is a graph showing stem cell marker expression in mice administered sPDNF at various time points after injection. […] Cardiac Sca-1 and SCF transcripts were quantified by qPCR; **, P<0.001; ***, P<0.0005. FIG. 2D is a graph showing quantitation of Sca-1 expression in various organs of mice administered sPDNF. C57BL/6 mice (3 per group), average of two experiments) were injected IV with sPDNF at 4 mg/kg body weight or PBS, sacrificed 3 hours later, and Sca-1 mRNA quantified by qPCR in the liver, heart, colon and bone marrow (*, P<0.05, **, P<0.001; ns, not significant; dotted line represents Sca-1 mRNA of vehicle-treated mice set at 1.0, data are representative of 2 experiments. […] FIG. 2F is a graph showing quantitation of expression of inflammatory markers in mice administered sPDNF. Wild type and naïve mice (5 per group) were injected IV with a single dose of sPDNF (4 mg/kg), sacrificed 3 hr post-injection, and the L-1Ra, TSG-6, COX-2, and IDO transcripts quantified in the heart and liver. […]

[6] = IV at 0, 3 and 24 hr, measured 24 hr after the last injection

TrkB, sequence (Q16620 32-822, species assumed): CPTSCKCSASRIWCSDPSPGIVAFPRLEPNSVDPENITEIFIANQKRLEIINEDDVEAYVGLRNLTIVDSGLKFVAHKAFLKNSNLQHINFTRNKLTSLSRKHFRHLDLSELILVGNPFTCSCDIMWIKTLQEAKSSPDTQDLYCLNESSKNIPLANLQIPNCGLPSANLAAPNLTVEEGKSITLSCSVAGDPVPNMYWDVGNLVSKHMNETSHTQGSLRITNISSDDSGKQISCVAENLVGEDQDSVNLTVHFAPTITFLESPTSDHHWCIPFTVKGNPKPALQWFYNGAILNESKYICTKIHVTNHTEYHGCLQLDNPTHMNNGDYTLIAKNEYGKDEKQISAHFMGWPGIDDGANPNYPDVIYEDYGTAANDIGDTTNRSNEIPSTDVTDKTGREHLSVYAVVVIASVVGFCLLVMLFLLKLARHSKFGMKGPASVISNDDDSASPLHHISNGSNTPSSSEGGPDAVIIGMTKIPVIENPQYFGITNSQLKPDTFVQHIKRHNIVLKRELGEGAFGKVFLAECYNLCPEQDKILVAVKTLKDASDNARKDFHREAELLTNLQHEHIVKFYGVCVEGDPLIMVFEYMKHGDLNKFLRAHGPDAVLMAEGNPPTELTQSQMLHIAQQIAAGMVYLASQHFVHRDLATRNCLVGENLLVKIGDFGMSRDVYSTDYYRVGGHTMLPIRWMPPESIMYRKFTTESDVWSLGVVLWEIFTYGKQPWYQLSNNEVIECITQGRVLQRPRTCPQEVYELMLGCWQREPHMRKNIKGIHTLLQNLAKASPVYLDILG

B1: sPDNF: N-terminal short-form of T cruzi PDNF that contains Trk-binding sites, recombinant; amino acids 1-588 of SEQ ID NO: 2; JR-100 is the commercial name (protein, listed as Trypanosoma cruzi)
chain: MGKTVVVASRMFWLMFFVPLLLAICPSEPAYALAPGSSRVELFKRKNSTVPFEDKAGKVTERVVHSFRLPALVNVDGVMVAIADARYDTSNDNSLIDTVAKYSVDDGETWETQIAIKNSRVSSVSRVVDPTVIVKGNKLYVLVGSYYSSRSYWSSHGDARDWDILLAVGEVTKSTAGGKITASIKWGSPVSLKKFFPAEMEGMHTNQFLGGAGVAIVASNGNLVYPVQVTNKKKQVFSKIFYSEDDGKTWKFGKGRSDFGCSEPVALEWEGKLIINTRVDWKRRLVYESSDMEKPWVEAVGTVSRVWGPSPKSNQPGSQSSFTAVTIEGMRVMLFTHPLNFKGRWLRDRLNLWLTDNQRIYNVGQVSIGDENSAYSSVLYKDDKLYCLHEINTDEVYSLVFARLVGELRIIKSVLRSWKNWDSHLSSICTPADPAASSSESGCGPAVTTVGLVGFLSGNASQNVWEDAYRCVNASTANAERVRNGLKFAGVGGGALWPVSQQGQNQRYRFANHAFTLVASVTIHEAPRAASPLLGASLDSSGGKKLLGLSYDEKHQWQPIYGSTPVTPTGSWETGKRYHLVLTMANKI
[1]
  half-life in the blood: ~15 min
  time of peak in the myocardium post-injection: ~15 min
[2]
  recognition of TrkB: not recognized
[3]
  toxicity: non-toxic
[4]; [6]
  CCR2 in the liver and heart (ventricle and atrium): significant increase
  CX3CR1 in the liver and heart (ventricle and atrium): significant increase
[4]; single IV dose (150 μg)
  CCR2 transcripts in cardiac and hepatic tissues: did not increase
  CX3CR1 transcripts in cardiac and hepatic tissues: did not increase
[5]
  expression of COX-2: increased expression
  expression of IL1-Ra: increased expression
  expression of TSG-6: increased expression
